{
  "source": "patent EP2107116A2",
  "key": {"[1]": {"target": "p97 (melanotransferrin) (UniProt P08582)", "sequence (P08582 20-709 limits assumed)": "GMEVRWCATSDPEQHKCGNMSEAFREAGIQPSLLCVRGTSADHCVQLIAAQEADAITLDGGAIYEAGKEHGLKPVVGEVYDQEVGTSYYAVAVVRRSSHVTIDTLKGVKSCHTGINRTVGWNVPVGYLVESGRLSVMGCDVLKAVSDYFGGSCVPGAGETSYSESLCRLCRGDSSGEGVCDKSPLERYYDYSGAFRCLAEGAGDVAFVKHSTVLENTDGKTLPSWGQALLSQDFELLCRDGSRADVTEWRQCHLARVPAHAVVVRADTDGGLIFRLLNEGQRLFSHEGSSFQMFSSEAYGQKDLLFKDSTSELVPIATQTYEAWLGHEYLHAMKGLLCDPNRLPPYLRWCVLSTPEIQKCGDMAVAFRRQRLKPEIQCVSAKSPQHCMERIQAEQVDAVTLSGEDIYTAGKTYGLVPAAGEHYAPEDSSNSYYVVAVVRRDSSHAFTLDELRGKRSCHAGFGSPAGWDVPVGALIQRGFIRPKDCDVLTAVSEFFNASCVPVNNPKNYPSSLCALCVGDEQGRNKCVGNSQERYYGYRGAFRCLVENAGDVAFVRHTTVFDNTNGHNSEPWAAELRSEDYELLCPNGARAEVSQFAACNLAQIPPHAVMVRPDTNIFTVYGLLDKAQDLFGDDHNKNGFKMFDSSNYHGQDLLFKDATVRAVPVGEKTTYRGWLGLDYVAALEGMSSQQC", "assay": "p97-coated plate, scFv-BLA culture broth, bound BLA activity (nitrocefin, 490 nm); ratio T1 (1 h dissociation)/T0 of mutant over parent; pH 6.5"}, "[2]": {"target": "p97 (melanotransferrin) (UniProt P08582)", "assay": "p97-coated plate, scFv-BLA culture broth, bound BLA activity (nitrocefin, 490 nm); ratio T1 (1 h dissociation)/T0 of mutant over parent; pH 7.4"}},
  "data": [
    {"substance": "ME54 (SGN-17 scFv-BLA, heavy chain D107 to His)", "values": [
      {"measurement": "Index pH6.5", "setting": "[1]", "result": 0.7},
      {"measurement": "Index pH7.4", "setting": "[2]", "result": 0.41}
    ]},
    {"substance": "ME43 (SGN-17 scFv-BLA, heavy chain K64 to His)", "values": [
      {"measurement": "Index pH6.5", "setting": "[1]", "result": 0.65},
      {"measurement": "Index pH7.4", "setting": "[2]", "result": 0.61}
    ]},
    {"substance": "ME47 (SGN-17 scFv-BLA, heavy chain L100 to His)", "values": [
      {"measurement": "Index pH7.4", "setting": "[2]", "result": 0.24}
    ]},
    {"substance": "ME61 (SGN-17 scFv-BLA, light chain T96 to His)", "values": [
      {"measurement": "Index pH6.5", "setting": "[1]", "result": 0.81},
      {"measurement": "Index pH7.4", "setting": "[2]", "result": 0.82}
    ]},
    {"substance": "ME46 (SGN-17 scFv-BLA, heavy chain T99 to His)", "values": [
      {"measurement": "Index pH6.5", "setting": "[1]", "result": 0.09},
      {"measurement": "Index pH7.4", "setting": "[2]", "result": 0.38}
    ]},
    {"substance": "ME51 (SGN-17 scFv-BLA, heavy chain Y104 to His)", "values": [
      {"measurement": "Index pH7.4", "setting": "[2]", "result": 0.26}
    ]},
    {"substance": "ME63 (SGN-17 scFv-BLA, light chain V98 to His)", "values": [
      {"measurement": "Index pH7.4", "setting": "[2]", "result": 0.21}
    ]},
    {"substance": "ME56 (SGN-17 scFv-BLA, heavy chain W109 to His)", "values": [
      {"measurement": "Index pH6.5", "setting": "[1]", "result": 0.41},
      {"measurement": "Index pH7.4", "setting": "[2]", "result": 0.57}
    ]},
    {"substance": "ME44 (SGN-17 scFv-BLA, heavy chain R97 to His)", "values": [
      {"measurement": "Index pH7.4", "setting": "[2]", "result": 0.24}
    ]},
    {"substance": "ME64 (SGN-17 scFv-BLA, light chain P99 to His)", "values": [
      {"measurement": "Index pH7.4", "setting": "[2]", "result": 0.35}
    ]},
    {"substance": "ME48 (SGN-17 scFv-BLA, heavy chain A101 to His)", "values": [
      {"measurement": "Index pH6.5", "setting": "[1]", "result": 0.33},
      {"measurement": "Index pH7.4", "setting": "[2]", "result": 0.49}
    ]},
    {"substance": "ME59 (SGN-17 scFv-BLA, light chain Q94 to His)", "values": [
      {"measurement": "Index pH7.4", "setting": "[2]", "result": 0.28}
    ]},
    {"substance": "ME58 (SGN-17 scFv-BLA, light chain R58 to His)", "values": [
      {"measurement": "Index pH6.5", "setting": "[1]", "result": 0.76},
      {"measurement": "Index pH7.4", "setting": "[2]", "result": 0.92}
    ]},
    {"substance": "ME66 (SGN-17 scFv-BLA, light chain T101 to His)", "values": [
      {"measurement": "Index pH6.5", "setting": "[1]", "result": 1.73},
      {"measurement": "Index pH7.4", "setting": "[2]", "result": 1.36}
    ]},
    {"substance": "ME53 (SGN-17 scFv-BLA, heavy chain M106 to His)", "values": [
      {"measurement": "Index pH6.5", "setting": "[1]", "result": 0.8},
      {"measurement": "Index pH7.4", "setting": "[2]", "result": 0.97}
    ]},
    {"substance": "ME50 (SGN-17 scFv-BLA, heavy chain Y103 to His)", "values": [
      {"measurement": "Index pH7.4", "setting": "[2]", "result": 0.33}
    ]},
    {"substance": "ME60 (SGN-17 scFv-BLA, light chain S95 to His)", "values": [
      {"measurement": "Index pH6.5", "setting": "[1]", "result": 1.09},
      {"measurement": "Index pH7.4", "setting": "[2]", "result": 1.04}
    ]},
    {"substance": "ME55 (SGN-17 scFv-BLA, heavy chain Y108 to His)", "values": [
      {"measurement": "Index pH6.5", "setting": "[1]", "result": 0.7},
      {"measurement": "Index pH7.4", "setting": "[2]", "result": 0.8}
    ]}
  ]
}
